Assays:
[1] = target: T1, DENV2 (strain 16681) prM-E, wild type (Dengue virus type 2, strain 16681, UniProt P29990); assay: flow cytometry on cells
T1 construct: also called wild-type prM-E; DENV-2 prM-E; source: HEK-293T, transfected, in fixed cells

[2] = target: E protein of DENV-2 Indonesian isolate (cosmopolitan genotype, Surabaya) (Dengue virus type 2, cosmopolitan …, UniProt P14340, strain); assay: cell-based or functional assay

Binder | binding result [1] | NT50, neutralization of DENV-2 (Indonesian isolate), Vero cells [2]
HuMAb 3E1 (antibody, V domains shown) VH: EVQLLESGGGLVQPGGSLRLSCAASGFTFSRFAMTWVRQAPGKGLEWVSAISGSGGSTFYADSVKGRFTISRDNSKNTLYLQMNSLRAEDTAVYYCVSLGDAWLLYWTPWGQGSLVTVSS VL: DVVMTQSPLSLPVTLGQPASISCRSSQSLVHGDGNTYLNWFQQRPGQSPRRLIYNVSNRDPGVPDRFSGSGSGTDFTLKISWVEAEDVGVYYCMQATHLPPTFGGGTKVEI | binds | 0.05 µg/mL
HuMAb 3G9 (antibody, V domains shown, also called 3G9-original; 3G9-Original) VH: EVQLLDSGGGLVQPGGSLRLSCAASGFTFNDYAMTWVRQAPGKGLEWVSTISGSGDGTYYQESLKGRFTISRDNSKNTLYLLMSSLRVDDTAVYYCAKLFGVGDSDGYWGQGTLVTVSS VL: QAVVTQEPSLTVSPGGTVTLTCGSSTGAVTSDHYFYWFQQKPGQAPRTLIYQTTNKHPWTPARFSGSLLGGKAALTLSGAQPEDEAEYYCLLSYGGGRPVFGGGTKLTVL | binds | 0.02 µg/mL
HuMAb 1E5 (antibody, V domains shown) VH: QVQLVESGGGVVQPGKSLRVSCAASGFIFSSYGMHWVRQAPGKGLEWVAVISYDGRYKFYADSVKGRFTISRDDSRSTLYLQMNSLRSDDTAVYYCARGRPYIGGDYEYDYFYGMDVWGQGTTVIVSS VL: IVMTQTPLSSPVTLGQPASISCRSSQSLVHSDGNTYLNWLQQRPGQPPRLLIYNISNRFSGVPDRFSGSGAGTDFTLKINRVEAEDVGVYYCMQATHFPYSFGQGTKLEIK | binds | 0.69 µg/mL
HuMAb 1C3 (antibody, V domains shown) VH: EVQLVESGGGLVQPGGSLRLSCAASGFTFSDHYIDWVRQAPGKGLEWVGRTSNRANSYTSEYAASVKGRFTISRDDSKNSVYLQMNSLKTEDTAVYFCARDSGWYDFWGQGTLVTVSS VL: ALTQPASVSGSPGQSITISCTGPSRDLGANNYVSWYQQHPGKAPKLLIYDINNRPSGVPDRFSGSRSGNTASLTISGLQADDEADYYCSSYTRSRTRVFGGGTKLTVL | binds | 0.12 µg/mL
